Measured values published in patent US20240336663.

Columns and labels:
[1] = test system: ZFR3 (Zinc Finger 3-HP1a-KRAB) (synthetic); assay: cell_activity; conditions: N2A cells, transfection, qPCR; indirect (repression); text labels ZFR3 as SEQ 11 but the listing gives Zinc Finger 3-HP1a-KRAB as SEQ 10
[2] = test system: ZFR11 (Zinc Finger 11-HP1a-KRAB) (synthetic); assay: cell_activity; conditions: N2A cells, transfection, qPCR; indirect (repression); text labels ZFR11 as SEQ 10 but the listing gives Zinc Finger 11-HP1a-KRAB as SEQ 11
Sequence of ZFR11 (Zinc Finger 11-HP1a-KRAB) (synthetic) (chain, as listed by the source): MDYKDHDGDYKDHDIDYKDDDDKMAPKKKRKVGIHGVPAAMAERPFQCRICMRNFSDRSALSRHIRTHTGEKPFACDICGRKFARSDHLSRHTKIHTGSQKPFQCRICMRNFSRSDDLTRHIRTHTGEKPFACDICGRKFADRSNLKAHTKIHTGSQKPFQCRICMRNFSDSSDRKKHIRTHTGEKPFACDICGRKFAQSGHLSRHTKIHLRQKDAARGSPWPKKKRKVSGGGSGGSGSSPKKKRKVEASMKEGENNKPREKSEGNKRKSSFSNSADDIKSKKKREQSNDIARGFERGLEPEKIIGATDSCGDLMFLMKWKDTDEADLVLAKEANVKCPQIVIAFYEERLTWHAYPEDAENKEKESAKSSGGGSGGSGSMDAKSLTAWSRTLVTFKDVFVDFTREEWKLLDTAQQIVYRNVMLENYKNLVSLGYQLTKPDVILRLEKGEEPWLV

Sequence of ZFR3 (Zinc Finger 3-HP1a-KRAB) (synthetic) (chain, as listed by the source): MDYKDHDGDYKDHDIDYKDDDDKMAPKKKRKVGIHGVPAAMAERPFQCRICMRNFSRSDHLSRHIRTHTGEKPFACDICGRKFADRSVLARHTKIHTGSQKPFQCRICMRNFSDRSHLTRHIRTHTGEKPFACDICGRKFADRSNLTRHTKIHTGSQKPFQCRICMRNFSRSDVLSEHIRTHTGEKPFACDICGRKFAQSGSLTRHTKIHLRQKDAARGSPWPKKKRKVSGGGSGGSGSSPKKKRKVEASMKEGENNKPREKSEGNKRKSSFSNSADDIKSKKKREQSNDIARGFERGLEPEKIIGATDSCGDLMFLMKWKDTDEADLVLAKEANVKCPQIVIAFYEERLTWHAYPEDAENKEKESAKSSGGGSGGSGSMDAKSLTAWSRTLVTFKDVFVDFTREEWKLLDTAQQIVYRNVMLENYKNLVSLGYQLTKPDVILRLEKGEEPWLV

## mouse Myd88 promoter target region (20 nt target of each ZF not individually printed)
[1]
  relative Myd88 expression (fold Myd88 expression): 0.22
[2]
  relative Myd88 expression (fold Myd88 expression): 0.21
